This series has as its system Renilla luciferase RNA. As to the kind of experiment: Barcoded aptazyme variant library screen: un-cleaved Renilla luciferase RNA by barcode read counts, HEK293-T cells. The format is cell-based. As to conditions: un-cleaved Renilla luciferase RNA, HEK293-T cells cultured with 1 mM theophylline (ON) over without theophylline (OFF); barcode read counts, triplicate. The source says: Based on the findings from Example 1, an aptazyme variant library was generated from the T3H48 ribozyme with one of seven variant theophylline aptamers inserted sequentially after each nucleotide of the DNA sequence encoding the T3H48 ribozyme sequence. […] The seven variant theophylline aptamers vary in their communication channels, which are the ribonucleotides of the aptamer that attach to the ribozyme sequence (see, Table 2).
The library was barcoded with unique sequences of nine nucleotides flanked by forward and reverse primer amplification sequences.
The aptazyme library was then PCR amplified and cloned into the psiCHECK™-2 dual luciferase vector in the 3′ UTR of the Renilla luciferase gene. […] The next day, the cells were isolated followed by DNA and RNA extraction using standard methods. The purified RNA was then converted to cDNA and the barcoded portion of the aptazyme library was PCR amplified. Similarly, the DNA was PCR amplified and all the samples were sequenced. All experimental conditions (with theophylline and without theophylline) were performed in triplicate. The read count for each barcode was determined with a custom build code and the data was normalized to identify the un-cleaved fractions of the Renilla luciferase RNA from cells that were cultured in the presence or absence of theophylline for each aptazyme, which was used to obtain the fold-change between ON- and OFF-states (FIG. 2).

Numbering of substitutions follows the chain as printed.

Regarding “RA215 (DNA GCTGTCACCGGATGTGCTTTCCGGTACGTGAGGTCCGTGAGGACGAAACAGC; expressed or natural sequence)”, the “Fold change in RNA expression between the ON state and the OFF state” value (shortened to “Fold change”) was determined as 1.2 fold.

B1: RA262 (nucleic acid)
DNA: GCTGTCACCGGAATACCAGCATCGTCTTGATGCCCTTGGAAGTCCGGTCTGATGAGTCCCATAAGGACGAAACAGC
modifications: expressed or natural sequence
With B1, the “Fold change” value turned out to be 1.1 fold.

B2: RA258 (nucleic acid)
DNA: GCGCGTCCTGGATTAGTGATACCAGCATCGTCTTGATGCCCTTGGCAGCACTCGCGGAAACGCGTACATCCAGCTGACGAGTCCCAAATAGGACGAAACGCGC
modifications: expressed or natural sequence
As to B2, the “Fold change” value amounted to 1.1 fold.

B3: RA026 (nucleic acid)
DNA: GCGCGTCCTGGATTCGCGGAAACGCGTACATCCAGCTGACGAGTCCGAGAATACCAGCATCGTCTTGATGCCCTTGGAAGTCTCGCCAAATAGGACGAAACGCGC
modifications: expressed or natural sequence
Turning to B3, the “Fold change” value stood at 2.4 fold.

B4: RA025 (nucleic acid)
DNA: GCGCGTCCCGAGAATACCAGCATCGTCTTGATGCCCTTGGAAGTCTCGTGGATTCGCGGAAACGCGTACATCCAGCTGACGAGTCCCAAATAGGACGAAACGCGC
modifications: expressed or natural sequence
With B4, the “Fold change” value stood at 2.5 fold.

B5: RA252 (nucleic acid)
DNA: GCGCGTCCTGGATTCGCGGAAGTGATACCAGCATCGTCTTGATGCCCTTGGCAGCACTAACGCGTACATCCAGCTGACGAGTCCCAAATAGGACGAAACGCGC
modifications: expressed or natural sequence
As to B5, the “Fold change” value is 1.1 fold.

B6: RA263 (nucleic acid)
DNA: GCGCGTCCTGGATTCGCGGAAACGCGTACATCCAGCTGACGAGTCCCAAAAGTGATACCAGCATCGTCTTGATGCCCTTGGCAGCACTTAGGACGAAACGCGC
modifications: expressed or natural sequence
Consider B6, for which the “Fold change” value came to 1.1 fold.

B7: RA253 (nucleic acid)
DNA: GCGCGTCCTGGATTCGCGGAAACGCGTACATGGAATACCAGCATCGTCTTGATGCCCTTGGAAGTCCCCAGCTGACGAGTCCCAAATAGGACGAAACGCGC
modifications: expressed or natural sequence
For the molecule B7, the “Fold change” value came to 1.1 fold.

B8: RA256 (nucleic acid)
DNA: GCGCGTCCTGGATTCGCGGAAACGCGTACATGAGAATACCAGCATCGTCTTGATGCCCTTGGAAGTCTCCCAGCTGACGAGTCCCAAATAGGACGAAACGCGC
modifications: expressed or natural sequence
On to B8, for which the “Fold change” value is reported as 1.1 fold.

B9: RA273 (nucleic acid)
DNA: GCGCGTCCTGGATTCGCGGGAATACCAGCATCGTCTTGATGCCCTTGGAAGTCCGAAACGCGTACATCCAGCTGACGAGTCCCAAATAGGACGAAACGCGC
modifications: expressed or natural sequence
As to B9, the “Fold change” value is reported as 1.0 fold.

B10: RA267 (nucleic acid)
DNA: GCGCGTCCTGGATTCGCGGAAACGCGTACATCCAGCTGACGAGTGGAATACCAGCATCGTCTTGATGCCCTTGGAAGTCCCCCAAATAGGACGAAACGCGC
modifications: expressed or natural sequence
Take B10: the “Fold change” value stood at 1.0 fold.

B11: RA269 (nucleic acid)
DNA: GCGCGTCCTGGATTCGCGGAAACGCGAGAATACCAGCATCGTCTTGATGCCCTTGGAAGTCTTACATCCAGCTGACGAGTCCCAAATAGGACGAAACGCGC
modifications: expressed or natural sequence
Regarding B11, the “Fold change” value was found to be 1.0 fold.

B12: RA264 (nucleic acid)
DNA: GCGCGTCCTGGATTCGCGGAAACGCGTACATCCAGCTAGAATACCAGCATCGTCTTGATGCCCTTGGAAGTCTGACGAGTCCCAAATAGGACGAAACGCGC
modifications: expressed or natural sequence
In the case of B12, the “Fold change” value was 1.0 fold.

B13: RA257 (nucleic acid)
DNA: GCGCGTCCTGGATTCGCGGAAACGCCGGAATACCAGCATCGTCTTGATGCCCTTGGAAGTCCGGTACATCCAGCTGACGAGTCCCAAATAGGACGAAACGCGC
modifications: expressed or natural sequence
As for B13, the “Fold change” value is listed as 1.1 fold.

B14: RA270 (nucleic acid)
DNA: GCGCGTCCTGGATTCGCGGAAACGCGTACATCCAGCTGACGAGTCCCAAATAGGACGAAGAATACCAGCATCGTCTTGATGCCCTTGGAAGTCTAACGCGC
modifications: expressed or natural sequence
Turning to B14, the “Fold change” value is reported as 1.0 fold.

B15: RA266 (nucleic acid)
DNA: GCGCGTCCTGGATTCGCGGAAACGCGCGAGAATACCAGCATCGTCTTGATGCCCTTGGAAGTCTCGTACATCCAGCTGACGAGTCCCAAATAGGACGAAACGCGC
modifications: expressed or natural sequence
In the case of B15, the “Fold change” value is on record as 1.0 fold.

B16: RA268 (nucleic acid)
DNA: GCGCGTCCTGGATTCGCGGAAACGCGTACATCCAGCTGACGAGTCCCAAATAGGACGAAACGCGGAGAATACCAGCATCGTCTTGATGCCCTTGGAAGTCTCC
modifications: expressed or natural sequence
With B16, the “Fold change” value is reported as 1.0 fold.

B17: RA272 (nucleic acid)
DNA: GCGCGTCCTGGATTCGCGGAAACGCGTACATCCAGCTGACGAGTCCCAAATAGGACGAAACGCGCAGAATACCAGCATCGTCTTGATGCCCTTGGAAGTCT
modifications: expressed or natural sequence
With B17, the “Fold change” value worked out at 1.0 fold.

B18: RA255 (nucleic acid)
DNA: GCGCGTCCTGGATTCGCGGAAACGCGTACATCCAGCTGACGAGTCCCAAATAGGACGAAACCGGAATACCAGCATCGTCTTGATGCCCTTGGAAGTCCGGCGCGC
modifications: expressed or natural sequence
On to B18, for which the “Fold change” value was 1.1 fold.

B19: RA265 (nucleic acid)
DNA: GCGCGTCCTGGATTCGCGGAAACGCGTACATCCAGCTGACGAGTCCCAAAGGAATACCAGCATCGTCTTGATGCCCTTGGAAGTCCTAGGACGAAACGCGC
modifications: expressed or natural sequence
Regarding B19, the “Fold change” value amounted to 1.0 fold.

B20: RA259 (nucleic acid)
DNA: GCGCGTCCTGGATTCGCGGAAACGCGTACATCCAGCTGACGAGTCCCAAATAGGACGAAAAGTGATACCAGCATCGTCTTGATGCCCTTGGCAGCACTCGCGC
modifications: expressed or natural sequence
As for B20, the “Fold change” value is given as 1.1 fold.

B21: RA260 (nucleic acid)
DNA: GCGCGTCCTGGATTCGCGGAAACGCCGGAATACCAGCATCGTCTTGATGCCCTTGGAAGTCCGGCGTACATCCAGCTGACGAGTCCCAAATAGGACGAAACGCGC
modifications: expressed or natural sequence
B21: the “Fold change” value is on record as 1.1 fold.

B22: RA251 (nucleic acid)
DNA: GCGCGTCCTGGACCGGAATACCAGCATCGTCTTGATGCCCTTGGAAGTCCGGTTCGCGGAAACGCGTACATCCAGCTGACGAGTCCCAAATAGGACGAAACGCGC
modifications: expressed or natural sequence
On to B22, for which the “Fold change” value was determined as 1.1 fold.

B23: RA254 (nucleic acid)
DNA: GCGCGTCCTGGATTCGCGGAAACGCGTACATCCAGCAGAATACCAGCATCGTCTTGATGCCCTTGGAAGTCTTGACGAGTCCCAAATAGGACGAAACGCGC
modifications: expressed or natural sequence
As for B23, the “Fold change” value is recorded as 1.1 fold.

B24: RA261 (nucleic acid)
DNA: GCGCGTCCTGGATTCGCGGAAACGCGTACATCCAGCTGACGAGTCCCAACGAGAATACCAGCATCGTCTTGATGCCCTTGGAAGTCTCGATAGGACGAAACGCGC
modifications: expressed or natural sequence
In the case of B24, the “Fold change” value is listed as 1.1 fold.

B25: RA271 (nucleic acid)
DNA: B24 DNA with G51C, A52G, T87C, C88G
modifications: expressed or natural sequence
In the case of B25, the “Fold change” value is reported as 1.0 fold.

The values above are taken from patent US20260167959A1, “APTAZYME-BASED REGULATABLE GENE EXPRESSION SYSTEMS” (REJUVENATE BIO INC, priority 2022, published 2026).
